Test results taken from the supplement of paper PMC9170038.

Legend:
[1] = test system: MS2 coat protein; assay: apparent KD of MS2 coat protein; designed switch direction (-1 OFF switch, 1 ON switch): 1; higher = weaker reporter binding; conditions: Eterna round: R98
Experimental: (§1)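 RNA-MaP: designed FMN/MS2 RNA switches (84 nt design region) are transcribed on-chip within common flanks and titrated with SNAP-549-labelled MS2 coat protein (about 1-3000 nM) in 100 mM Tris pH 7.5, 80 mM KCl, 4 mM MgCl2, without or with 200 uM FMN. Median apparent KD per design; activation ratio = KD,OFF / KD,ON.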

[2] = test system: MS2 coat protein; assay: apparent KD of MS2 coat protein; higher = weaker reporter binding; conditions: Eterna round: R101
Experimental: as §1

| Sequence | apparent KD of MS2 coat protein ([1]; input ligand: FMN 200 uM) | apparent KD of MS2 coat protein ([1]; input ligand: none) | apparent KD of MS2 coat protein ([2]; input ligand: FMN 200 uM) | apparent KD of MS2 coat protein ([2]; input ligand: none) |
| --- | --- | --- | --- | --- |
| AAAUAAAAUAUAGGAUAUGGAAACAUGAGGAUCACCCAUGUAAGAUAAGAUAAAUAAUGAUAUAGCCAGAAGGAUAAAAUAUAA [LRO005_SS NG 2] | 32.7 nM | 28.3 nM |  |  |
| AAUAAUCAGGUAGGAUAUGCUCAGGAAUACUGAGCAGAAGGACUAGAAACCUGAGGAUCACCCAGGUAACUGGAAUAAUAAUAA [Same State NG1 - A3C, U17G Submission 6A] | 53.6 nM | 78.3 nM |  |  |
| AGAAACUACGAGAAGGACAUGUGGUCCUUCGGGAAAAUGAGGAUCACCCAUGUAGGAUAUCGUAGUUUCAGGAUCGUGAGAUCA [salish99_ISLExNG1_022 #HINGE] (puzzle (switch architecture): Inverted Small Loop Exclusion NG 1) |  |  | 51.1 nM | 69.2 nM |
| AGAGCUGCUCAGAAGGAGGAUCACCCUUUCGAAAGAAAGACGGAGGCUGAAAAGCCUCCGAAAUUCUAGGAUAUGAGCAGCUCA [#SharedSequence - IExNG2: 1] (puzzle (switch architecture): Inverted Exclusion NG 2) |  |  | 411 nM | 204 nM |
| AGGAGGAAUGUAGGAUAUAUAUAUAUAUAUAGACAAAGUGUAUAUAUAUAUAUAGAAGGACAUGAGGAUCACCCAUGUUUCCCU [#Lowering the energy 13] (puzzle (switch architecture): Small Loop Exclusion NG 1) |  |  | 6.87 nM | 8.11 nM |
| AGGUAUACUUAGAAGGGCUCCAGCAAAGCUGGAGCAGGAUAUGAGGAUCACCCAUAUCACCUGACGGUCGAAACGACCGUCAGG [#SharedSequence - IExNG1: 8-1] (puzzle (switch architecture): Inverted Exclusion NG 1) |  |  | 26.8 nM | 13.2 nM |
| AGGUAUACUUAGAAGGGCUCCAGCAAAGCUGGAGCAGGAUAUGAGGAUCACCCAUGUCACCUGACGGUCGAAACGACCGUCAGG [#SharedSequence - IExNG1: 9-1] (puzzle (switch architecture): Inverted Exclusion NG 1) |  |  | 76.4 nM | 22.8 nM |
| AGGUGAGCUCGAUGGCGACAUGAGGAUCACCCAUGUACGAUCAGAAGGGCUCGGGCAAGAAGUGGGCAGGAUAUGGUCGGUGCC [Xeadion] (puzzle (switch architecture): Inverted Exclusion NG 3) |  |  | 4.5 nM |  |
| AGUUGCAAACAGAACAUGAGGAUCACCCAUGUGCUCUCGUGUAAGGAUAUACAUUCGUAUGGAAAGUAGAAGGUACUAAUUAUG [JR_SSNG3_Sub93] | 66.3 nM | 65.1 nM |  |  |
| AUAUAAAAUAUAGGAUAUGGAAACAUGAGGAUCACCCAUGUAUGAUAAGAUAAAUAAUGAUAUAGCCAGAAGGAUACAAUAUAA [LRO008_SS NG 2] | 47.5 nM | 38.2 nM |  |  |
| AUGAAGAGGCAAGGAUAUCGAGUGCUGGGCCUAUACAUGAGGAUCACCCAUGUCCUGGCAGGACGUGAGAAGGUGUAUCGAAUA [Ussotemaa] | 455 nM | 244 nM |  |  |
| CAUAUAUGGUGAGGAUAUGCAGAGGAUCACCCUGUAGAAGGCAUCAGGGUAGAAGGUGCAAGGAUCACCUGUAAGGAUAUAUCC [pwkr2 ssNG1 DX.28] | 979 nM | 864 nM |  |  |
| CGCUAUGACAUGAGGAUCACCCAUGUAUACAUGGGAAUGACGUAGGAUAUGCAGAAGAUUAAAGUGCAGAAGGACGGCUUAGCG [JR #DistanceClose #Static #NP SSNG3 Sub064] (puzzle (switch architecture): Same State NG 3) |  |  | 1020 nM | 830 nM |
| GACUGCAGGAUAACAACCUGCAGUCACUUCUGAGGAUCACCCAGAAGGGCUGAGGUAAUACCUCAGCAGGAUAUGGAGUGAAAA [#SharedSequence IExNG# - 5] (puzzle (switch architecture): Inverted Exclusion NG 3) |  |  | 141 nM | 64.3 nM |
| GCAGCUAAUGCAGGAUAUCAGCACGUGUAGUGCUGAGAAGGGCACAUGAGGAUACCCACUGUGAUCAAUUAAUAUUAAUGCUGC [salish99#hingeEx3_55-58_002] (puzzle (switch architecture): Exclusion NG 1) |  |  | 18.4 nM | 50.2 nM |
| GGAAUAAAUGCAGGAUAUACGUGGAAAGCCCUCAACAUGAGGAUCACCCAUGUAGAAGGGCAUCUCCCGACCGAAGCGGAUCUC [Laisraus] (puzzle (switch architecture): Small Loop Exclusion NG 1) |  |  | 4.83 nM |  |
| GGAGAUACAUGAGGAUCACCCAUGUAGGAUAUCGGGCCCAUAUCCGGCGAAAGCCGGAUAUGGGCCGAGAAGGGCGUACACACC [#LOL-6] (puzzle (switch architecture): Small Loop Exclusion NG 3) |  |  | 7.58 nM | 8.68 nM |
| GGUACUCAAAGAGUACCAAUACGAACAUGAGGAUCACCCAUGUAGGAUAUGCUACUCAAAGAGUAGCAGAAGGACAUGUGUCUA [jl-ex3-3.01 #GC_VS_GU_SWITCHING] (puzzle (switch architecture): Exclusion NG 3) |  |  | 55.5 nM | 13.9 nM |
| GGUCGACUUCAAGGAUAUGGACUGCUUUGCAGUCCAGAAGGUGAGGAUCACCCACCUACGGUCAGGUUUCUGACCGAUCGACCU [#AddUracilToBrourdLoops 4 - Jieux - Exclusion NG1] (puzzle (switch architecture): Exclusion NG 1) |  |  | 8.62 nM | 7.94 nM |
| GUCGGAAACGACAAGUCAGCUCGUGAGGAUAUACAUAAAUUAAAGAUCACAUGAGGAUCACCCAUGUAGAAGGCACGAGCUGAU [#StaticStemDeletion - ENG2/2-A2] (puzzle (switch architecture): Small Loop Exclusion NG 3) |  |  | 455 nM | 195 nM |
| GUGCUUGUCGAAGGAUAUGGUUACAUGAGGAUCACCCAUGUUAUGCUUGGUUACUUGUUUAGUUUCCAGAAGGUCGAUUAGUUG [salish99_ExNG2_001 #Hinge] (puzzle (switch architecture): Exclusion NG 2) |  |  | 55.7 nM | 23 nM |
| UAUAACGAAAGAGGAUAUAUCGGCCGUCUACGGAUAGAAGGCUUUCGCUAUGGCACUGAUGAUCUACAUGAGGAUCACCCAUGU [EternaBot731] (puzzle (switch architecture): Exclusion NG 1) |  |  | 7.18 nM |  |
| UAUUCUUUGUUAGGAUAUGGGCCCACCCACCCACAAAGUGGGUGGGUGGGCCCAGAAGGAACAUGAGGAUCACCCAUGUAGGAA [#Aaaddddeeeeeeennnniiiinneeeee!] (puzzle (switch architecture): Small Loop Exclusion NG 1) |  |  | 53.1 nM | 11.7 nM |
| UAUUCUUUGUUAGGAUAUGGGCCCACCCACCCACAAAGUGGGUGGGUGGGCCCAGAAGGAACAUGAGGAUCACCCAUGUAGGCC [#Aaaddddeeeeeeennnniiiinneeeee!] (puzzle (switch architecture): Small Loop Exclusion NG 1) |  |  | 88.5 nM | 6.16 nM |
| UUAUUAUAUGUAGGAUAUGCAUAUUAUUACUGUGCAGAAGGACAUGAGGAUCACCCAUGUAUAUUAUUAUUAUAUAUUAUAUAU (puzzle (switch architecture): Exclusion NG 1) |  |  | 20.6 nM | 17.2 nM |
